# Data from IntAct's records for PubMed 35512704.
# B1: Speckle-type POZ protein (Homo sapiens), O43791 (parent)
# chain: MSRVPSPPPPAEMSSGPVAESWCYTQIKVVKFSYMWTINNFSFCREEMGEVIKSSTFSSGANDKLKWCLRVNPKGLDEESKDYLSLYLLLVSCPKSEVRAKFKFSILNAKGEETKAMESQRAYRFVQGKDWGFKKFIRRDFLLDEANGLLPDDKLTLFCEVSVVQDSVNISGQNTMNMVKVPECRLADELGGLWENSRFTDCCLCVAGQEFQAHKAILAARSPVFSAMFEHEMEESKKNRVEINDVEPEVFKEMMCFIYTGKAPNLDKMADDLLAAADKYALERLKVMCEDALCSNLSVENAAEILILADLHSADQLKTQAVDFINYHASDVLETSGWKSMVVSHPHLVAEAYRSLASAQCPFLGPPRKRLKQS
# partner: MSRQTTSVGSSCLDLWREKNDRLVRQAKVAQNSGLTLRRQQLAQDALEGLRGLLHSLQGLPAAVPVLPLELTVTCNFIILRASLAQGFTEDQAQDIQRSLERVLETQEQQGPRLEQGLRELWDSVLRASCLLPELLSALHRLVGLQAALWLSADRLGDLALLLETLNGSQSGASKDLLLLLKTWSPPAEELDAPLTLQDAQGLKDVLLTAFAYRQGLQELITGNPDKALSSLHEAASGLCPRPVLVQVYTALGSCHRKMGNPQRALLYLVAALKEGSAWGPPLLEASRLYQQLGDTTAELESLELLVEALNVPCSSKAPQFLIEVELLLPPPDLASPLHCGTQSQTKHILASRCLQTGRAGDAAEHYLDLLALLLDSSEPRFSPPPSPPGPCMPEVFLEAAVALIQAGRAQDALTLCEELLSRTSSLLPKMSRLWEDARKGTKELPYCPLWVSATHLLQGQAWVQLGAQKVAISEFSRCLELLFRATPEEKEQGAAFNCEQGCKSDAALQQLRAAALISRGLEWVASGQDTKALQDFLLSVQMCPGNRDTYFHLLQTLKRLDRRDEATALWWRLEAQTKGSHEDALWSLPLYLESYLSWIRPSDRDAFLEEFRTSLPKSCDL
# B2: Speckle-type POZ protein (Homo sapiens), O43791 (parent)
# chain: B1 chain
# partner: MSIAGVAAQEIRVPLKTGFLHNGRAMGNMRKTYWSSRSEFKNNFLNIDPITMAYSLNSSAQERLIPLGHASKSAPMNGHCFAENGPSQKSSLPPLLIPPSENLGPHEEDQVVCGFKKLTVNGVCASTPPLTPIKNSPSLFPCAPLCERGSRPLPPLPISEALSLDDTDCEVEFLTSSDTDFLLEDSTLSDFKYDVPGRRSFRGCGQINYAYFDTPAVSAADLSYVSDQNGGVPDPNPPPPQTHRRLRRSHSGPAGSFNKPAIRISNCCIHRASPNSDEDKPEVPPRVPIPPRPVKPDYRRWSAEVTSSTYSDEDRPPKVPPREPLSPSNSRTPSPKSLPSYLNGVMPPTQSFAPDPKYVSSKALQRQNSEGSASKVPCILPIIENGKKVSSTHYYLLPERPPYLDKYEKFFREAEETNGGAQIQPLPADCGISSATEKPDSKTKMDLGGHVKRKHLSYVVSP
# B3: Speckle-type POZ protein (Homo sapiens), O43791 (parent)
# chain: B1 chain
# partner: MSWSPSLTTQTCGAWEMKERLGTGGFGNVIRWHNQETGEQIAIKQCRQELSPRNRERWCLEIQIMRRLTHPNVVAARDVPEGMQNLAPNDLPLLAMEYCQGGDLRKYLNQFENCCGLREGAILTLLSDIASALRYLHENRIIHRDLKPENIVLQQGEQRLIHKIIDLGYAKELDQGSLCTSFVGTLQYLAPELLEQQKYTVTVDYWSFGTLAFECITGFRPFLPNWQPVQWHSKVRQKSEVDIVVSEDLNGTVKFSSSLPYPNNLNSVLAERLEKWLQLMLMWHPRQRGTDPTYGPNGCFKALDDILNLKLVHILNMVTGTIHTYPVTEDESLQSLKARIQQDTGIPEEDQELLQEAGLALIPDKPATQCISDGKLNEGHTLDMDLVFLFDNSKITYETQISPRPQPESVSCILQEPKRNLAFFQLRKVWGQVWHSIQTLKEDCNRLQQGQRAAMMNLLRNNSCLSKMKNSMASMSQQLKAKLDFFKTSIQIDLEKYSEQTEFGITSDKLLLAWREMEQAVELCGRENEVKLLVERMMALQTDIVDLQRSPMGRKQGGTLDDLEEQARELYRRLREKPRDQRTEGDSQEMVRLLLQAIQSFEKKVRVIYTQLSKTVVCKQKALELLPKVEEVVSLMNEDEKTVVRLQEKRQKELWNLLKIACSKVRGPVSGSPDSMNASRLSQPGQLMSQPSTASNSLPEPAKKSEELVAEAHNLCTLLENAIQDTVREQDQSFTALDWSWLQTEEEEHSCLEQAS
# B4: Speckle-type POZ protein (Homo sapiens), O43791 (parent)
# chain: B1 chain
# partner: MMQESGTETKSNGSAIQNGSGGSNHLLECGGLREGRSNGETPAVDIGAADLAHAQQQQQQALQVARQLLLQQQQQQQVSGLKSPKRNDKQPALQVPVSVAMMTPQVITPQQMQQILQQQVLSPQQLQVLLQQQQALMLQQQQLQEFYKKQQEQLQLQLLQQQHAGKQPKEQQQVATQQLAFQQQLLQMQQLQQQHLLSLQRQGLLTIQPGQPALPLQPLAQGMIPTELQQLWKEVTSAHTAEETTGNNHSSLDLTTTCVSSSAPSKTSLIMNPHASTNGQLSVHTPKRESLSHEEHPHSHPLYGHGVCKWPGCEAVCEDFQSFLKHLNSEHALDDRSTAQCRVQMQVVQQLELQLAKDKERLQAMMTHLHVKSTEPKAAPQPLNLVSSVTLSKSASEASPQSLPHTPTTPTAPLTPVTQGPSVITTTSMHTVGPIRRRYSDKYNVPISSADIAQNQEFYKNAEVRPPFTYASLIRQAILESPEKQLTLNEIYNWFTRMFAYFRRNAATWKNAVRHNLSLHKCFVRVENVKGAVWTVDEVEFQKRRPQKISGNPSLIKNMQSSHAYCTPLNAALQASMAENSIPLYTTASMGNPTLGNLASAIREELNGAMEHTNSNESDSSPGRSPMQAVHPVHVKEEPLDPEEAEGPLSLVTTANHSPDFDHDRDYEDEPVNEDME
# B5: Speckle-type POZ protein (Homo sapiens), O43791 (parent)
# chain: B1 chain
# partner: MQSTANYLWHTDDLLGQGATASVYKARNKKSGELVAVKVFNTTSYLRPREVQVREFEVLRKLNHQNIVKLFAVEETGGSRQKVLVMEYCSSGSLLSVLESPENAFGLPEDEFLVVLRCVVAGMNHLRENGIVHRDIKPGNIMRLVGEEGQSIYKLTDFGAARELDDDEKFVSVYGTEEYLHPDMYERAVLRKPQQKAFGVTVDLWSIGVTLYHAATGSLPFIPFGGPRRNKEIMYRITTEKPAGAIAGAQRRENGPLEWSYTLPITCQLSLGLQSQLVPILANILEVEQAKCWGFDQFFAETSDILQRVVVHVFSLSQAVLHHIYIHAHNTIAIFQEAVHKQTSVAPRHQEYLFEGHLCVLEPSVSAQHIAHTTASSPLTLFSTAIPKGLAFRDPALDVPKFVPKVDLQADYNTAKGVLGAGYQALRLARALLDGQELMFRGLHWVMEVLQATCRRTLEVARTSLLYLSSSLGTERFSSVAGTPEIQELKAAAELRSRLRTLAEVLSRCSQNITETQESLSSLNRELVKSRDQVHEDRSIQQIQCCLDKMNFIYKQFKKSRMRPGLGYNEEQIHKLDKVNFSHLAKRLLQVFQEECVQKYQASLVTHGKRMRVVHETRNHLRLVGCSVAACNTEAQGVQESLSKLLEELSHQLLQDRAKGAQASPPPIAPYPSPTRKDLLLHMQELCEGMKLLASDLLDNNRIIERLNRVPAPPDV
# B6: Speckle-type POZ protein (Homo sapiens), O43791 (parent)
# chain: B1 chain
# partner: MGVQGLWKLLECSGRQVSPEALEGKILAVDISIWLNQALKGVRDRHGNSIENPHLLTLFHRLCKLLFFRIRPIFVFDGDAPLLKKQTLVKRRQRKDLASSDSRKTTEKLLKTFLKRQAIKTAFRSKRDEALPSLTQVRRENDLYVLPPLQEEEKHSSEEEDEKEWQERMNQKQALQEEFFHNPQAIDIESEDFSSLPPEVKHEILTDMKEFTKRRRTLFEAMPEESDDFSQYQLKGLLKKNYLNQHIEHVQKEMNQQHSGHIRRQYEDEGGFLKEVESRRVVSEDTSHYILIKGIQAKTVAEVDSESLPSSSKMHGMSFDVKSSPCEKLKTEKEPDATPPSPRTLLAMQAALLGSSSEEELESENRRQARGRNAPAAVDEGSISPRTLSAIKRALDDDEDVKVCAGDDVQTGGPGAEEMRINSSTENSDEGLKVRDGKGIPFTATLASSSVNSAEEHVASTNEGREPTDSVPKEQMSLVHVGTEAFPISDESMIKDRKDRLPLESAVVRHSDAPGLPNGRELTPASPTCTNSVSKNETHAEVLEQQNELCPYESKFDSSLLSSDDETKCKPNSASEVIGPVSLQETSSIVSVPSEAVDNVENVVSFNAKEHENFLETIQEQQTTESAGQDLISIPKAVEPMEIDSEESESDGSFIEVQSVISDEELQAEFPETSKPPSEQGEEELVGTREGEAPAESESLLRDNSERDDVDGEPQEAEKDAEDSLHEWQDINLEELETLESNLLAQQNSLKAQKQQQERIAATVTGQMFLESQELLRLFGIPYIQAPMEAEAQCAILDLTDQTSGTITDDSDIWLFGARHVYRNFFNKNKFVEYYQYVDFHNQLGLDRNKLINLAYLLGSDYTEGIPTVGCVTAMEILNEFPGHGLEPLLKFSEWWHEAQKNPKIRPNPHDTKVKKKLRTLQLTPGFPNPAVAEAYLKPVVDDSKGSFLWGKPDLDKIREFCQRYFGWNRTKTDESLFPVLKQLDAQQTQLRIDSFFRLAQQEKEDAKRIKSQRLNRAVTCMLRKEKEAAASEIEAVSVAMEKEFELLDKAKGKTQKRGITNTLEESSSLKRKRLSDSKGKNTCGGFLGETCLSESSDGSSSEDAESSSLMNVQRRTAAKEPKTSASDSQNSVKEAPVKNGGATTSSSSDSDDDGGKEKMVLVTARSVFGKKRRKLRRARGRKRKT
# Variants of: B1
# Conditions: with fancg_human FANCG
row,Variant,effect of a mutation on the interaction
1,F133L,with no effect

# Variants of: B1
# Conditions: with fancg_human FANCG
# Remark: another data set of the same source
row,Variant,effect of a mutation on the interaction
1,F133V,with no effect

# Variants of: B1
# Conditions: with fancg_human FANCG
# Remark: another data set of the same source
row,Variant,effect of a mutation on the interaction
1,F102C,with no effect

# Variants of: B1
# Conditions: with fancg_human FANCG
# Remark: another data set of the same source
row,Variant,effect of a mutation on the interaction
1,Y87C,with no effect

# Variants of: B2
# Conditions: with errfi_human ERRFI1, Q9UJM3
row,Variant,effect of a mutation on the interaction
1,F133L,with no effect

# Variants of: B2
# Conditions: with errfi_human ERRFI1, Q9UJM3
# Remark: another data set of the same source
row,Variant,effect of a mutation on the interaction
1,F133V,with no effect

# Variants of: B2
# Conditions: with errfi_human ERRFI1, Q9UJM3
# Remark: another data set of the same source
row,Variant,effect of a mutation on the interaction
1,Y87C,with no effect

# Variants of: B2
# Conditions: with errfi_human ERRFI1, Q9UJM3
# Remark: another data set of the same source
row,Variant,effect of a mutation on the interaction
1,F102C,with no effect

# Variants of: B3
# Conditions: with ikkb_human IKBKB
row,Variant,effect of a mutation on the interaction
1,F133L,with no effect

# Variants of: B3
# Conditions: with ikkb_human IKBKB
# Remark: another data set of the same source
row,Variant,effect of a mutation on the interaction
1,F133V,with no effect

# Variants of: B3
# Conditions: with ikkb_human IKBKB
# Remark: another data set of the same source
row,Variant,effect of a mutation on the interaction
1,F102C,with no effect

# Variants of: B3
# Conditions: with ikkb_human IKBKB
# Remark: another data set of the same source
row,Variant,effect of a mutation on the interaction
1,Y87C,with no effect

# Variants of: B4
# Conditions: with foxp1_human FOXP1, Q9H334
row,Variant,effect of a mutation on the interaction
1,F102C,with no effect

# Variants of: B4
# Conditions: with foxp1_human FOXP1, Q9H334
# Remark: another data set of the same source
row,Variant,effect of a mutation on the interaction
1,F133L,with no effect

# Variants of: B4
# Conditions: with foxp1_human FOXP1, Q9H334
# Remark: another data set of the same source
row,Variant,effect of a mutation on the interaction
1,F133V,causing an interaction

# Variants of: B4
# Conditions: with foxp1_human FOXP1, Q9H334
# Remark: another data set of the same source
row,Variant,effect of a mutation on the interaction
1,Y87C,with no effect

# Variants of: B5
# Conditions: with ikke_human IKBKE
row,Variant,effect of a mutation on the interaction
1,F133L,with no effect

# Variants of: B5
# Conditions: with ikke_human IKBKE
# Remark: another data set of the same source
row,Variant,effect of a mutation on the interaction
1,F133V,with no effect

# Variants of: B5
# Conditions: with ikke_human IKBKE
# Remark: another data set of the same source
row,Variant,effect of a mutation on the interaction
1,Y87C,with no effect

# Variants of: B5
# Conditions: with ikke_human IKBKE
# Remark: another data set of the same source
row,Variant,effect of a mutation on the interaction
1,F102C,with no effect

# Variants of: B6
# Conditions: with ercc5_human ERCC5, P28715
row,Variant,effect of a mutation on the interaction
1,Y87C,with no effect

# Variants of: B6
# Conditions: with ercc5_human ERCC5, P28715
# Remark: another data set of the same source
row,Variant,effect of a mutation on the interaction
1,F102C,with no effect

# Variants of: B6
# Conditions: with ercc5_human ERCC5, P28715
# Remark: another data set of the same source
row,Variant,effect of a mutation on the interaction
1,F133V,with no effect

# Variants of: B6
# Conditions: with ercc5_human ERCC5, P28715
# Remark: another data set of the same source
row,Variant,effect of a mutation on the interaction
1,F133L,with no effect
